{"source": "patent US20040002439A1", "about": "(ORTHO MCNEIL PHARMACEUTICAL, published 2004)", "molecular_target": "Nav1.2 (a type II alpha subunit)", "experiment": "cell-based or functional assay", "data": [{"binder": "human voltage gated sodium channel β1A subunit (other) ACGGCVEVDSETEAVYGMTFKILCISCKRRSETNAETFTEWTFRQKGTEEFVKILRYENEVLQLEEDERFEGRVVWNGSRGTKDLQDLSIFITNVTYNHSGDYECHVYRLLFFENYEHNTSVVKKIHIEVVDKGESGAACPFTVTHRRARWRDRWQAVDRTGWLCAWPANRPQQRAEGEGSSPSCPLQLWPLFLSSPRRGQSMPVPHRRSGYRTQLCHLCCMTSGRCLLSLSQRVVLGLPGIIIRCVSRGVV", "values": [{"measurement": "ionic current conducted by Nav1.2 in Xenopus oocytes (cut-open oocyte voltage clamp)", "result": "~3", "unit": "fold"}]}]}
